Results taken from patent publication US20240050583A1 (HARBOUR BIOMED SHANGHAI, published 2024).

T1: human BCMA (human, UniProt Q02223 1-184)
T1 construct: whole, on cells; also called hBCMA; tumor necrosis factor receptor superfamily member 17
T1 sequence (looked up): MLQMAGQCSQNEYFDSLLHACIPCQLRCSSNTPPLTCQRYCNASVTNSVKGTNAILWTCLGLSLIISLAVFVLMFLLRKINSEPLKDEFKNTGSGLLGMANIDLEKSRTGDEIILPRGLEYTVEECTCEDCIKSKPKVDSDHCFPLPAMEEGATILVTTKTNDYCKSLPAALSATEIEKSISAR


Target: T1, human BCMA
Experiment: flow cytometry (FACS) on NCI-H929 cells

Binder	binding result
HCAb PR004433 (antibody, human IgG1, V domains shown, also called PR001046_R2_4G10; anti-BCMA HCAb antibody PR004433) VH: EVQLVETGGGLIQPGGSLRLSCAASGFTVSDSYMTWVRQAPGKGLEWVSVIFSGGRTYYSDSVKGRFTISRDNAKNTLYLQMNSLRAEDTALYYCARRNYDDTRGTDVFDIWGQGTMVTVSS	binds
PR006036 (antibody, V domains shown, also called PR004433 variant molecule; Hinge4_15) VH: EVQLVETGGGLIQPGGSLRLSCAASGFTVSDSYMTWVRQAPGKGLEWVSVIFSGGRTYYSDSVKGRFTISRDNAKNTLYLQMNSLRAEDTALYYCARRNYDDTRGTDVFDIWGQGTMVTVSS	binds
PR006310 (antibody, V domains shown, also called PR004433 variant molecule; Hinge7_2) VH: EVQLVETGGGLIQPGGSLRLSCAASGFTVSDSYMTWVRQAPGKGLEWVSVIFSGGRTYYSDSVKGRFTISRDNAKNTLYLQMNSLRAEDTALYYCARRNYDDTRGTDVFDIWGQGTMVTVSS	binds
PR006042 (antibody, V domains shown, also called PR004433 variant molecule; Hinge6_18) VH: EVQLVETGGGLIQPGGSLRLSCAASGFTVSDSYMTWVRQAPGKGLEWVSVIFSGGRTYYSDSVKGRFTISRDNAKNTLYLQMNSLRAEDTALYYCARRNYDDTRGTDVFDIWGQGTMVTVSS	binds
PR006319 (antibody, V domains shown, also called PR004433 variant molecule; Hinge10_3) VH: EVQLVETGGGLIQPGGSLRLSCAASGFTVSDSYMTWVRQAPGKGLEWVSVIFSGGRTYYSDSVKGRFTISRDNAKNTLYLQMNSLRAEDTALYYCARRNYDDTRGTDVFDIWGQGTMVTVSS	binds
PR006031 (antibody, V domains shown, also called PR004433 variant molecule; Hinge3_5) VH: EVQLVETGGGLIQPGGSLRLSCAASGFTVSDSYMTWVRQAPGKGLEWVSVIFSGGRTYYSDSVKGRFTISRDNAKNTLYLQMNSLRAEDTALYYCARRNYDDTRGTDVFDIWGQGTMVTVSS	binds
PR006314 (antibody, V domains shown, also called PR004433 variant molecule; Hinge8_18) VH: EVQLVETGGGLIQPGGSLRLSCAASGFTVSDSYMTWVRQAPGKGLEWVSVIFSGGRTYYSDSVKGRFTISRDNAKNTLYLQMNSLRAEDTALYYCARRNYDDTRGTDVFDIWGQGTMVTVSS	binds
PR006316 (antibody, V domains shown, also called PR004433 variant molecule; Hinge9_5) VH: EVQLVETGGGLIQPGGSLRLSCAASGFTVSDSYMTWVRQAPGKGLEWVSVIFSGGRTYYSDSVKGRFTISRDNAKNTLYLQMNSLRAEDTALYYCARRNYDDTRGTDVFDIWGQGTMVTVSS	binds
PR006038 (antibody, V domains shown, also called PR004433 variant molecule; Hinge5_12) VH: EVQLVETGGGLIQPGGSLRLSCAASGFTVSDSYMTWVRQAPGKGLEWVSVIFSGGRTYYSDSVKGRFTISRDNAKNTLYLQMNSLRAEDTALYYCARRNYDDTRGTDVFDIWGQGTMVTVSS	binds
PR006039 (antibody, V domains shown, also called PR004433 variant molecule; Hinge5_13) VH: EVQLVETGGGLIQPGGSLRLSCAASGFTVSDSYMTWVRQAPGKGLEWVSVIFSGGRTYYSDSVKGRFTISRDNAKNTLYLQMNSLRAEDTALYYCARRNYDDTRGTDVFDIWGQGTMVTVSS	binds
PR006321 (antibody, V domains shown, also called PR004433 variant molecule; Hinge10_7) VH: EVQLVETGGGLIQPGGSLRLSCAASGFTVSDSYMTWVRQAPGKGLEWVSVIFSGGRTYYSDSVKGRFTISRDNAKNTLYLQMNSLRAEDTALYYCARRNYDDTRGTDVFDIWGQGTMVTVSS	binds
PR006032 (antibody, V domains shown, also called PR004433 variant molecule; Hinge3_6) VH: EVQLVETGGGLIQPGGSLRLSCAASGFTVSDSYMTWVRQAPGKGLEWVSVIFSGGRTYYSDSVKGRFTISRDNAKNTLYLQMNSLRAEDTALYYCARRNYDDTRGTDVFDIWGQGTMVTVSS	binds

Continued, values first:

binding result	Binder
binds	PR006034 (antibody, V domains shown, also called PR004433 variant molecule; Hinge4_1) VH: EVQLVETGGGLIQPGGSLRLSCAASGFTVSDSYMTWVRQAPGKGLEWVSVIFSGGRTYYSDSVKGRFTISRDNAKNTLYLQMNSLRAEDTALYYCARRNYDDTRGTDVFDIWGQGTMVTVSS
binds	PR006041 (antibody, V domains shown, also called PR004433 variant molecule; Hinge6_15) VH: EVQLVETGGGLIQPGGSLRLSCAASGFTVSDSYMTWVRQAPGKGLEWVSVIFSGGRTYYSDSVKGRFTISRDNAKNTLYLQMNSLRAEDTALYYCARRNYDDTRGTDVFDIWGQGTMVTVSS
binds	PR006312 (antibody, V domains shown, also called PR004433 variant molecule; Hinge7_19) VH: EVQLVETGGGLIQPGGSLRLSCAASGFTVSDSYMTWVRQAPGKGLEWVSVIFSGGRTYYSDSVKGRFTISRDNAKNTLYLQMNSLRAEDTALYYCARRNYDDTRGTDVFDIWGQGTMVTVSS
binds	PR006035 (antibody, V domains shown, also called PR004433 variant molecule; Hinge4_6) VH: EVQLVETGGGLIQPGGSLRLSCAASGFTVSDSYMTWVRQAPGKGLEWVSVIFSGGRTYYSDSVKGRFTISRDNAKNTLYLQMNSLRAEDTALYYCARRNYDDTRGTDVFDIWGQGTMVTVSS
binds	PR006040 (antibody, V domains shown, also called PR004433 variant molecule; Hinge6_4) VH: EVQLVETGGGLIQPGGSLRLSCAASGFTVSDSYMTWVRQAPGKGLEWVSVIFSGGRTYYSDSVKGRFTISRDNAKNTLYLQMNSLRAEDTALYYCARRNYDDTRGTDVFDIWGQGTMVTVSS
binds	PR006315 (antibody, V domains shown, also called PR004433 variant molecule; Hinge8_20) VH: EVQLVETGGGLIQPGGSLRLSCAASGFTVSDSYMTWVRQAPGKGLEWVSVIFSGGRTYYSDSVKGRFTISRDNAKNTLYLQMNSLRAEDTALYYCARRNYDDTRGTDVFDIWGQGTMVTVSS
binds	PR006317 (antibody, V domains shown, also called PR004433 variant molecule; Hinge9_7) VH: EVQLVETGGGLIQPGGSLRLSCAASGFTVSDSYMTWVRQAPGKGLEWVSVIFSGGRTYYSDSVKGRFTISRDNAKNTLYLQMNSLRAEDTALYYCARRNYDDTRGTDVFDIWGQGTMVTVSS
binds	PR006320 (antibody, V domains shown, also called PR004433 variant molecule; Hinge10_5) VH: EVQLVETGGGLIQPGGSLRLSCAASGFTVSDSYMTWVRQAPGKGLEWVSVIFSGGRTYYSDSVKGRFTISRDNAKNTLYLQMNSLRAEDTALYYCARRNYDDTRGTDVFDIWGQGTMVTVSS
binds	PR006037 (antibody, V domains shown, also called PR004433 variant molecule; Hinge5_2) VH: EVQLVETGGGLIQPGGSLRLSCAASGFTVSDSYMTWVRQAPGKGLEWVSVIFSGGRTYYSDSVKGRFTISRDNAKNTLYLQMNSLRAEDTALYYCARRNYDDTRGTDVFDIWGQGTMVTVSS
binds	PR006318 (antibody, V domains shown, also called PR004433 variant molecule; Hinge9_14) VH: EVQLVETGGGLIQPGGSLRLSCAASGFTVSDSYMTWVRQAPGKGLEWVSVIFSGGRTYYSDSVKGRFTISRDNAKNTLYLQMNSLRAEDTALYYCARRNYDDTRGTDVFDIWGQGTMVTVSS
binds	PR006313 (antibody, V domains shown, also called PR004433 variant molecule; Hinge8_8) VH: EVQLVETGGGLIQPGGSLRLSCAASGFTVSDSYMTWVRQAPGKGLEWVSVIFSGGRTYYSDSVKGRFTISRDNAKNTLYLQMNSLRAEDTALYYCARRNYDDTRGTDVFDIWGQGTMVTVSS
binds	PR006033 (antibody, V domains shown, also called PR004433 variant molecule; Hinge3_18) VH: EVQLVETGGGLIQPGGSLRLSCAASGFTVSDSYMTWVRQAPGKGLEWVSVIFSGGRTYYSDSVKGRFTISRDNAKNTLYLQMNSLRAEDTALYYCARRNYDDTRGTDVFDIWGQGTMVTVSS
